Test results from patent US10487318.

T1: fluorescently quenched α-gliadin hexapeptide analogue QXL520-PQPQLP-K(5-FAM)-NH2
T1 chain: PQPQLP


Biological target: T1, fluorescently quenched α-gliadin …

Protein | Fold Change in Activity of PQ Hydrolysis Relative to Wild Type Kumamolysin-As
Kumamolysin-As N291D, Q361D (protein) MSDMEKPWKEGEEARAVLQGHARAQAPQAVDKGPVAGDERMAVTVVLRRQRAGELAAHVERQAAIAPHAREHLKREAFAASHGASLDDFAELRRFADAHGLALDRANVAAGTAVLSGPVDAINRAFGVELRHFDHPDGSYRSYLGEVTVPASIAPMIEAVLGLDTRPVARPHFRMQRRAEGGFEARSQAAAPTAYTPLDVAQAYQFPEGLDGQGQCIAIIELGGGYDEASLAQYFASLGVPAPQVVSVSVDGASNQPTGDPSGPDGEVELDIEVAGALAPGAKFAVYFAPDTDAGFLDAITTAIHDPTLKPSVVSISWGGPEDSWTSAAIAAMNRAFLDAAALGVTVLAAAGDSGSTDGEDDGLYHVDFPAASPYVLACGGTRLVASGGRIAQETVWNDGPDGGATGGGVSRIFPLPAWQEHANVPPSANPGASSGRGVPDLAGNADPATGYEVVIDGEATVIGGTSAVAPLFAALVARINQKLGKAVGYLNPTLYQLPADVFHDITEGNNDIANRAQIYQAGPGWDPCTGLGSPIGVRLLQALLPSASQPQPGSTENLYFQSGALEHHHHHH | 7.5 fold
Kumamolysin-As N291D, D358N (protein) MSDMEKPWKEGEEARAVLQGHARAQAPQAVDKGPVAGDERMAVTVVLRRQRAGELAAHVERQAAIAPHAREHLKREAFAASHGASLDDFAELRRFADAHGLALDRANVAAGTAVLSGPVDAINRAFGVELRHFDHPDGSYRSYLGEVTVPASIAPMIEAVLGLDTRPVARPHFRMQRRAEGGFEARSQAAAPTAYTPLDVAQAYQFPEGLDGQGQCIAIIELGGGYDEASLAQYFASLGVPAPQVVSVSVDGASNQPTGDPSGPDGEVELDIEVAGALAPGAKFAVYFAPDTDAGFLDAITTAIHDPTLKPSVVSISWGGPEDSWTSAAIAAMNRAFLDAAALGVTVLAAAGDSGSTNGEQDGLYHVDFPAASPYVLACGGTRLVASGGRIAQETVWNDGPDGGATGGGVSRIFPLPAWQEHANVPPSANPGASSGRGVPDLAGNADPATGYEVVIDGEATVIGGTSAVAPLFAALVARINQKLGKAVGYLNPTLYQLPADVFHDITEGNNDIANRAQIYQAGPGWDPCTGLGSPIGVRLLQALLPSASQPQPGSTENLYFQSGALEHHHHHH | 18.9 fold
Kumamolysin-As S354N, D358G, D368H (protein) MSDMEKPWKEGEEARAVLQGHARAQAPQAVDKGPVAGDERMAVTVVLRRQRAGELAAHVERQAAIAPHAREHLKREAFAASHGASLDDFAELRRFADAHGLALDRANVAAGTAVLSGPVDAINRAFGVELRHFDHPDGSYRSYLGEVTVPASIAPMIEAVLGLDTRPVARPHFRMQRRAEGGFEARSQAAAPTAYTPLDVAQAYQFPEGLDGQGQCIAIIELGGGYDEASLAQYFASLGVPAPQVVSVSVDGASNQPTGDPSGPDGEVELDIEVAGALAPGAKFAVYFAPNTDAGFLDAITTAIHDPTLKPSVVSISWGGPEDSWTSAAIAAMNRAFLDAAALGVTVLAAAGDNGSTGGEQDGLYHVHFPAASPYVLACGGTRLVASGGRIAQETVWNDGPDGGATGGGVSRIFPLPAWQEHANVPPSANPGASSGRGVPDLAGNADPATGYEVVIDGEATVIGGTSAVAPLFAALVARINQKLGKAVGYLNPTLYQLPADVFHDITEGNNDIANRAQIYQAGPGWDPCTGLGSPIGVRLLQALLPSASQPQPGSTENLYFQSGALEHHHHHH | 9 fold
Kumamolysin-As N291D, D293A, D358G, Q361D (protein) MSDMEKPWKEGEEARAVLQGHARAQAPQAVDKGPVAGDERMAVTVVLRRQRAGELAAHVERQAAIAPHAREHLKREAFAASHGASLDDFAELRRFADAHGLALDRANVAAGTAVLSGPVDAINRAFGVELRHFDHPDGSYRSYLGEVTVPASIAPMIEAVLGLDTRPVARPHFRMQRRAEGGFEARSQAAAPTAYTPLDVAQAYQFPEGLDGQGQCIAIIELGGGYDEASLAQYFASLGVPAPQVVSVSVDGASNQPTGDPSGPDGEVELDIEVAGALAPGAKFAVYFAPDTAAGFLDAITTAIHDPTLKPSVVSISWGGPEDSWTSAAIAAMNRAFLDAAALGVTVLAAAGDSGSTGGEDDGLYHVDFPAASPYVLACGGTRLVASGGRIAQETVWNDGPDGGATGGGVSRIFPLPAWQEHANVPPSANPGASSGRGVPDLAGNADPATGYEVVIDGEATVIGGTSAVAPLFAALVARINQKLGKAVGYLNPTLYQLPADVFHDITEGNNDIANRAQIYQAGPGWDPCTGLGSPIGVRLLQALLPSASQPQPGSTENLYFQSGALEHHHHHH | 15 fold
Kumamolysin-As N291D, D293A (protein) MSDMEKPWKEGEEARAVLQGHARAQAPQAVDKGPVAGDERMAVTVVLRRQRAGELAAHVERQAAIAPHAREHLKREAFAASHGASLDDFAELRRFADAHGLALDRANVAAGTAVLSGPVDAINRAFGVELRHFDHPDGSYRSYLGEVTVPASIAPMIEAVLGLDTRPVARPHFRMQRRAEGGFEARSQAAAPTAYTPLDVAQAYQFPEGLDGQGQCIAIIELGGGYDEASLAQYFASLGVPAPQVVSVSVDGASNQPTGDPSGPDGEVELDIEVAGALAPGAKFAVYFAPDTAAGFLDAITTAIHDPTLKPSVVSISWGGPEDSWTSAAIAAMNRAFLDAAALGVTVLAAAGDSGSTDGEQDGLYHVDFPAASPYVLACGGTRLVASGGRIAQETVWNDGPDGGATGGGVSRIFPLPAWQEHANVPPSANPGASSGRGVPDLAGNADPATGYEVVIDGEATVIGGTSAVAPLFAALVARINQKLGKAVGYLNPTLYQLPADVFHDITEGNNDIANRAQIYQAGPGWDPCTGLGSPIGVRLLQALLPSASQPQPGSTENLYFQSGALEHHHHHH | 15 fold
Kumamolysin-As N291D, D293A, Q361D, D358N (protein) MSDMEKPWKEGEEARAVLQGHARAQAPQAVDKGPVAGDERMAVTVVLRRQRAGELAAHVERQAAIAPHAREHLKREAFAASHGASLDDFAELRRFADAHGLALDRANVAAGTAVLSGPVDAINRAFGVELRHFDHPDGSYRSYLGEVTVPASIAPMIEAVLGLDTRPVARPHFRMQRRAEGGFEARSQAAAPTAYTPLDVAQAYQFPEGLDGQGQCIAIIELGGGYDEASLAQYFASLGVPAPQVVSVSVDGASNQPTGDPSGPDGEVELDIEVAGALAPGAKFAVYFAPDTAAGFLDAITTAIHDPTLKPSVVSISWGGPEDSWTSAAIAAMNRAFLDAAALGVTVLAAAGDSGSTNGEDDGLYHVDFPAASPYVLACGGTRLVASGGRIAQETVWNDGPDGGATGGGVSRIFPLPAWQEHANVPPSANPGASSGRGVPDLAGNADPATGYEVVIDGEATVIGGTSAVAPLFAALVARINQKLGKAVGYLNPTLYQLPADVFHDITEGNNDIANRAQIYQAGPGWDPCTGLGSPIGVRLLQALLPSASQPQPGSTENLYFQSGALEHHHHHH | 14.8 fold
Kumamolysin-As N291D (protein) MSDMEKPWKEGEEARAVLQGHARAQAPQAVDKGPVAGDERMAVTVVLRRQRAGELAAHVERQAAIAPHAREHLKREAFAASHGASLDDFAELRRFADAHGLALDRANVAAGTAVLSGPVDAINRAFGVELRHFDHPDGSYRSYLGEVTVPASIAPMIEAVLGLDTRPVARPHFRMQRRAEGGFEARSQAAAPTAYTPLDVAQAYQFPEGLDGQGQCIAIIELGGGYDEASLAQYFASLGVPAPQVVSVSVDGASNQPTGDPSGPDGEVELDIEVAGALAPGAKFAVYFAPDTDAGFLDAITTAIHDPTLKPSVVSISWGGPEDSWTSAAIAAMNRAFLDAAALGVTVLAAAGDSGSTDGEQDGLYHVDFPAASPYVLACGGTRLVASGGRIAQETVWNDGPDGGATGGGVSRIFPLPAWQEHANVPPSANPGASSGRGVPDLAGNADPATGYEVVIDGEATVIGGTSAVAPLFAALVARINQKLGKAVGYLNPTLYQLPADVFHDITEGNNDIANRAQIYQAGPGWDPCTGLGSPIGVRLLQALLPSASQPQPGSTENLYFQSGALEHHHHHH | 10 fold
